B1: TDP-43 N-terminal domain (NTD), wild-type, residues 1-80 (domain or fragment)
chain: GHMMSEYIRVTEDENDEPIEIPSEDDGTVLLSTVTAQFPGACGLRYRNPVSQCMRGVRLVEGILHAPDAGWGNLVYVVNYPKD
notes: three additional N-terminal residues left by the cloning strategy and TEV cleavage; TDP-43 N-terminal domain, residues 1-80 (codon of N81 changed to a stop codon); 15N-labelled or natural abundance, depending on the NMR experiment; also called TDP-43 NTD; NTD WT; source: E. coli BL21 Star DE3, purified (Histrap, TEV cleavage, SEC); not shown: Thioredoxin, N-terminal, cleaved; His6, N-terminal, …

Key:
[1] = molecular target: the molecule itself; test: CG-MALS; composition gradient multi-angle light scattering, 20 mM HEPES pH 6.8, 150 mM NaCl, 1 mM DTT; isodesmic self-association model, each addition of a monomer
[2] = molecular target: the molecule itself; test: cross-linking; amine cross-linker BS3, 20 mM HEPES pH 7.5, 150 mM NaCl, 1 mM DTT, room temperature 30 min, SDS-PAGE; samples of 10-200 μM
[3] = molecular target: the molecule itself; test: AUC; sedimentation equilibrium, 28.28-89.23 μM, 150 mM NaCl, 20°C, 12,000, 25,000 and 43,000 rpm; isodesmic model, single KD for each association step
[4] = molecular target: B1; test: NMR titration; 1H-15N HSQC chemical shift deviations of 10 μM 15N-labelled protein with 90 μM natural abundance partner, against 10 μM alone; conditions: both partners purified
[5] = molecular target: TDP-43 NTD S48E, residues 1-80 (UniProt Q13148); test: CG-MALS; composition gradient multi-angle light scattering, 20 mM HEPES pH 6.8, 150 mM NaCl, 1 mM DTT; isodesmic self-association model, each addition of a monomer

Row | binding result [4] | Kd [5] [µM] | Binder | Kd [1] [µM] | stoichiometry N [2] | Kd [3] [µM]
1 |  |  | B1 | 95 | ≤ 7 | ~40
2 | binds | 2000 | TDP-43 NTD S48E, residues 1-80 (domain or fragment, three additional N-terminal residues left by the cloning strategy and TEV cleavage; TDP-43 N-terminal domain, residues 1-80, phosphomimetic S48E; 15N-, 13C/15N-labelled or natural abundance, depending on the NMR experiment; also called S48E TDP-43 NTD; S48E 1-80 NTD; source: E. coli BL21 Star DE3, purified (Histrap, TEV cleavage, SEC); not shown: Thioredoxin, N-terminal, cleaved; His6, …) GHMMSEYIRVTEDENDEPIEIPSEDDGTVLLSTVTAQFPGACGLRYRNPVEQCMRGVRLVEGILHAPDAGWGNLVYVVNYPKD |  |  | 
